The source of these data is patent US20180207294A1, “NON-ALCOHOLIC FATTY LIVER REGULATING FACTOR 14-3-3 PROTEIN” (Korea University Research and Business Foundation, priority 2015, published 2018).

For one test, the target named is T1, 14-3-3γ and PPARγ2 (Homo sapiens, UniProt P37231).
T1 construct: expressed in transfected cells; host or cells: HEK-293T
T1 sequence (P37231 1-505): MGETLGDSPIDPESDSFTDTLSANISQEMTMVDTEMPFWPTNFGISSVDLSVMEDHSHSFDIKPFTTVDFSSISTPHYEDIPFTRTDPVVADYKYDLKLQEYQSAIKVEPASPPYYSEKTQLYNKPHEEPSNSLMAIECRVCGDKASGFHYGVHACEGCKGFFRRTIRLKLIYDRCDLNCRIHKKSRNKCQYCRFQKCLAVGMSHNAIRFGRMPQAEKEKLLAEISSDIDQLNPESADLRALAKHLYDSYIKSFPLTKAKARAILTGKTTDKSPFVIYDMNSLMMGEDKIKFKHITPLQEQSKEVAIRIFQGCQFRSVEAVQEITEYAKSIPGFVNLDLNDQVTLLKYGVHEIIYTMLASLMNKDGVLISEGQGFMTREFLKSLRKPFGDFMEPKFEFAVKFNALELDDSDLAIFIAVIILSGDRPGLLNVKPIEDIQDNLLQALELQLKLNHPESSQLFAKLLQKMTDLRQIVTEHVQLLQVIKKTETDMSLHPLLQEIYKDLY
T1 sequence (P31946 1-246 partner): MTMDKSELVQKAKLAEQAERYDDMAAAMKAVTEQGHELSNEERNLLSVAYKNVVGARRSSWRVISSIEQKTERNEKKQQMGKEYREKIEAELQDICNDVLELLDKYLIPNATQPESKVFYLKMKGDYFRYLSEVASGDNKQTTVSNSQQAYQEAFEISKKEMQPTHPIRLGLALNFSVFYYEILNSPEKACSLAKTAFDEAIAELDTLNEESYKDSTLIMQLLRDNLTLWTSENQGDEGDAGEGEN
In words: Competitive GST-pull down assay, 14-3-3γ / PPARγ2 binding under 14-3-3β overexpression. The settings on record: as expression amount of 14-3-3β was increased (HA-14-3-3β DNA 2 and 4 μg); 10 μM pioglitazone; FIG. 5B. Here is the method:
(§1) From the previous experimental results, it was verified that 14-3-3β and 14-3-3γ were bound to the phosphorylated serine 273 residue of PPARγ2, and it was determined that the two proteins would competitively bind to the same residue. Thus, GST-pull down assay was carried out to verify competitive binding of 14-3-3β and 14-3-3γ with PPARγ2.
(§2) HEK-293T cells were seeded in a 100 mm plate at a density of 2×10^6 cells per each well, and then transfected with mGST-PPARγ2DNA (4 μg), GFP-14-3-3β DNA (4 μg) or GFP-14-3-3γ DNA (4 μg), and HA-14-3-3β DNA (2 and 4 μg) or HA-14-3-3γ DNA (2 and 4 μg) using an E-fection plus reagent (Lugen). A ratio of DNA to the E-fection plus reagent was 1:2 and this method was performed according to a manufacturer's manual. After transfection, the corresponding cells were treated with 10 μM of pioglitazone (Pio, Santa Cruz) for 24 hours, washed with ice-cold PBS, and lysed using 500 μl/well of a lysis buffer (150 mM NaCl, 1 mM EDTA, 1% Nonidet P-40, 5% glycerol, 25 mM tris-HCl, pH 7.5, protease inhibitor added), and the lysed cells were centrifuged at 10,000×g and 4° C. for 10 minutes to extract proteins. […]

The target of another test is T2, PPAR-RXR complex (Homo sapiens, UniProt P37231).
T2 sequence (P37231 1-505): T1 sequence (P37231 1-505)
T2 sequence (P19793 1-462 partner): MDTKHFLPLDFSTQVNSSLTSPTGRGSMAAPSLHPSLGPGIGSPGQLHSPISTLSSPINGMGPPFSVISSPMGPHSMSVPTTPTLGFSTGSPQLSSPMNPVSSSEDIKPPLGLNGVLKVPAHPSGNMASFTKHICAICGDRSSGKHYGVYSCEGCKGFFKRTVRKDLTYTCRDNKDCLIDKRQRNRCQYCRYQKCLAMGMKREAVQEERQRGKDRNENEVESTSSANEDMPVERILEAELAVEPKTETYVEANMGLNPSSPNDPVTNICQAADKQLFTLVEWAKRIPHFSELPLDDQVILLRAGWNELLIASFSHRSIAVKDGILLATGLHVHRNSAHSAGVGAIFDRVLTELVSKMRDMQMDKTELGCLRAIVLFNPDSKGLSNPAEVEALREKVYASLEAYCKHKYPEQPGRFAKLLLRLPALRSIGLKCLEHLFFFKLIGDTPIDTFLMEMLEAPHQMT
Put plainly: Formation of PPAR-RXR complex under 14-3-3 overexpression. The class given is binding. The settings on record: overexpression of 14-3-3β and 14-3-3γ; FIG. 8C.

The target of another test is T3, 14-3-3β and PPARγ2 (Homo sapiens, UniProt P37231).
T3 construct: expressed in transfected cells; host or cells: HEK-293T
T3 sequence (P37231 1-505): T1 sequence (P37231 1-505)
T3 sequence (P31946 1-246 partner): T1 sequence (P31946 1-246 partner)
In words: Competitive GST-pull down assay, 14-3-3β / PPARγ2 binding under 14-3-3γ overexpression. The note with it: as expression amount of 14-3-3γ was increased (HA-14-3-3γ DNA 2 and 4 μg); 10 μM pioglitazone; FIG. 5A. Here is the method: as §1, §2

For the substance “14-3-3β: 14-3-3 isoform protein, overexpressed by DNA transfection; regulating factor that increases transcriptional activity of PPARγ2”, in the test with 14-3-3γ and PPARγ2, the “binding between 14-3-3γ and PPARγ2” value is given as “reduced”. The “formation of the PPAR-RXR complex” value with PPAR-RXR complex is “did not affect the formation of the PPAR-RXR complex”.
As to “14-3-3γ: 14-3-3 isoform protein, overexpressed by DNA transfection; regulating factor that decreases transcriptional activity of PPARγ2”, the “binding between 14-3-3β and PPARγ2” value with 14-3-3β and PPARγ2 is “reduced”. In the test with PPAR-RXR complex, the “formation of the PPAR-RXR complex” value was “did not affect the formation of the PPAR-RXR complex”.
